Test results taken from patent US20240270821A1, “GIP/GLP1/GCG TRI-RECEPTOR AGONISTS AND USES THEREOF” (priority 2023, published 2024).

Experiments:
Assay in all cases: cell-based or functional assay
[1] = target: T1, human GIP receptor (human) (UniProt P48546)
T1 sequence (looked up): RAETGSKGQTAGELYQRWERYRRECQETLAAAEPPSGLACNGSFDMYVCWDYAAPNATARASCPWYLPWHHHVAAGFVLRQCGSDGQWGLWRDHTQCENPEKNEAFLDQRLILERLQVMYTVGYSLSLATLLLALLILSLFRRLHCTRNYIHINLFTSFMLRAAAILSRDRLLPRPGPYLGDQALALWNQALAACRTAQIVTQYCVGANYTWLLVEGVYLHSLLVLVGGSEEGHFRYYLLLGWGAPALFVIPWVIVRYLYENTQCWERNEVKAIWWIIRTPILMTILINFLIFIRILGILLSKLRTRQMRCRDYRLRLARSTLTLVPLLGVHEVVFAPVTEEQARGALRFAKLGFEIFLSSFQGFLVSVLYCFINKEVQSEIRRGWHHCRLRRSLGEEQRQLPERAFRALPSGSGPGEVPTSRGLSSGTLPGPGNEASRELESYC

[2] = target: human glucagon receptor (human) (UniProt P47871)
hGLP-1R = hGLP-1R (Homo sapiens, UniProt P43220)
Sequence of hGLP-1R (P43220 24-463): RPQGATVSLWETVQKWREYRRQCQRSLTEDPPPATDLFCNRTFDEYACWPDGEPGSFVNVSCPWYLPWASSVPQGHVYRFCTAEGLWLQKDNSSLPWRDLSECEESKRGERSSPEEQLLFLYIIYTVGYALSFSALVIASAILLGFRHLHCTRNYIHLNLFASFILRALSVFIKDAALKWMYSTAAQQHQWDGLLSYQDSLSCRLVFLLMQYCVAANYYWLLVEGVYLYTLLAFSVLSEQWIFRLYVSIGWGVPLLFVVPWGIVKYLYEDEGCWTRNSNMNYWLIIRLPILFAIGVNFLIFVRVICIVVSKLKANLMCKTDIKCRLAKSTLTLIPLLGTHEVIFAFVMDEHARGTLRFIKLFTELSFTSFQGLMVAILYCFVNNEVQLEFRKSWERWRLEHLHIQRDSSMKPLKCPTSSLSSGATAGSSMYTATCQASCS

Sequence of human glucagon receptor (human) (P47871 26-477): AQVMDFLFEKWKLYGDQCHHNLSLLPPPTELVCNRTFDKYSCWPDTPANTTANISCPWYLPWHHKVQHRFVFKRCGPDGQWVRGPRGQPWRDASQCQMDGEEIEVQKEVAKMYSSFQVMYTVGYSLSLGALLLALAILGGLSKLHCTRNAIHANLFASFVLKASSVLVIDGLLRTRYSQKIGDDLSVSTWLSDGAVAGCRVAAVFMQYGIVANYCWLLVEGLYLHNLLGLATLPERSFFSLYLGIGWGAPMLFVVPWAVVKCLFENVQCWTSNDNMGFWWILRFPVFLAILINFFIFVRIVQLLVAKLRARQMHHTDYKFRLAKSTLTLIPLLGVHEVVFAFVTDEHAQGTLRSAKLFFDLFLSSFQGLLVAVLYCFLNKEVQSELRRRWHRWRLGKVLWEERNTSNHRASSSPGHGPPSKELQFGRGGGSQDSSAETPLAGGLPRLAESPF

Binder	Relative cAMP EC50 [1] [nM]	cAMP Rel EC50, nM (1% HSA) [1] [nM]	Relative cAMP EC50 [2] [nM]	cAMP Rel EC50, nM (1% HSA) [2] [nM]	Relative cAMP EC50 (hGLP-1R) [nM]	cAMP Rel EC50, nM (1% HSA) (hGLP-1R) [nM]
YXQGTXTSDYSIXLDKKAQXAFIEYLEEGGPSSGAPPPS (synthetic construct; SITE 2: note = 2-Aminoisobutyric Acid; SITE 6: note = alpha-methyl-2-fluoro-L-phenylalanine; SITE 13: note = alpha-methyl-leucine; SITE 17: note = Lysine is chemically modified through conjugation of the epsilon-amino group of the Lysine side chain with (2-[2-(2-Amino-ethoxy)-et)) [Example 421]	0.0132	2.98	3.25	468	0.21	31.9
YXQGTXTSDYSILLDXKAQXAFIEYLLEGGPSSGAPPPS (synthetic construct; SITE 2: note = 2-Aminoisobutyric Acid; SITE 6: note = alpha-methyl-2-fluoro-L-phenylalanine; SITE 16: note = L-ornithine; SITE 17: note = Lysine is chemically modified through conjugation of the epsilon-amino group of the Lysine side chain with (2-[2-(2-Amino-ethoxy)-ethoxy]-ace)) [Example 427]	0.0121	4.25	3.81	1440	0.282	42.9
YXQGTXTSDXSIXLDKKAQXAFIEYLSEGGPSSGAPPPS (synthetic construct; SITE 2: note = 2-Aminoisobutyric Acid; SITE 6: note = alpha-methyl-2-fluoro-L-phenylalanine; SITE 10: note = 3-(4-Pyridyl)-L-alanine; SITE 13: note = alpha-methyl-leucine; SITE 17: note = Lysine is chemically modified through conjugation of the epsilon-amino group of the Lysine) [Example 446]	0.0351	3.01	8.34	516	0.696	24.5
YXQGTXTSDYSIXLDKKAQXAFIEYLEEGGPSSGAPEPS (synthetic construct; SITE 2: note = 2-Aminoisobutyric Acid; SITE 6: note = alpha-methyl-2-fluoro-L-phenylalanine; SITE 13: note = alpha-methyl-leucine; SITE 17: note = Lysine is chemically modified through conjugation of the epsilon-amino group of the Lysine side chain with (2-[2-(2-Amino-ethoxy)-et)) [Example 423]	0.0114	3.07	1.92	319	0.194	28.7
HXQGTXTSDYSILLDKKAQXAFIEYLEEGGPSSGAPPPS (not fully specified; synthetic construct; SITE 2: note = 2-Aminoisobutyric Acid; SITE 6: note = alpha-methyl-2-fluoro-L-phenylalanine; SITE 17: note = Lysine is chemically modified through conjugation of the epsilon-amino group of the Lysine side chain with (2-[2-(2-Amino-ethoxy)-ethoxy]-acetyl)-(gamma-Glu)-CO-(CH2) 16-) [Example 425]	0.0997	46.9	5.49	1150	0.15	20.3
YXQGTXTSDYSILLDXKAQXAFIEYLLEGGPSSGAPPPS (synthetic construct; SITE 2: note = 2-Aminoisobutyric Acid; SITE 6: note = alpha-methyl-2-fluoro-L-phenylalanine; SITE 16: note = L-ornithine; SITE 17: note = Lysine is chemically modified through conjugation of the epsilon-amino group of the Lysine side chain with (gamma-Glu)2-CO-(CH2)16-CO2H; SITE) [Example 428]	0.01	4.55	2.35	536	0.207	38.2
YXQGTXTSDYSILLDKIAQXAFIKYLEEGGPSSGAPPPS (not fully specified; synthetic construct; SITE 2: note = 2-Aminoisobutyric Acid; SITE 6: note = alpha-methyl-2-fluoro-L-phenylalanine; SITE 20: note = 2-Aminoisobutyric Acid; SITE 24: note = Lysine is chemically modified through conjugation of the epsilon-amino group of the Lysine side chain with (2-[2-(2-Amino-ethoxy)-) [Example 430]	0.0144	4.65	2.11	559	0.438	78.9
YXQGTXTSDXSIXLDKKAQXAFIEYLEEGGPSSGAPPPE (synthetic construct; SITE 2: note = 2-Aminoisobutyric Acid; SITE 6: note = alpha-methyl-2-fluoro-L-phenylalanine; SITE 10: note = 3-(4-Pyridyl)-L-alanine; SITE 13: note = alpha-methyl-leucine; SITE 17: note = Lysine is chemically modified through conjugation of the epsilon-amino group of the Lysine) [Example 445]	0.0206	2.41	10.1	448	0.731	23.2
HXQGTXTSDYSILLDKKAQXAFIEYLEEGGPSSGAPPPS (synthetic construct; SITE 2: note = 2-Aminoisobutyric Acid; SITE 6: note = alpha-methyl-2-fluoro-L-phenylalanine; SITE 17: note = Lysine is chemically modified through conjugation of the epsilon-amino group of the Lysine side chain with (gamma-Glu)2-CO-(CH2)16-CO2H; SITE 20: note = 2-Aminoisobutyric) [Example 426]	0.079	29.8	4.33	740	0.139	16.6
YXQGTXTSDXSIXLDKKAQXAFIEYLEEGGPSSGEPPPS (synthetic construct; SITE 2: note = 2-Aminoisobutyric Acid; SITE 6: note = alpha-methyl-2-fluoro-L-phenylalanine; SITE 10: note = 3-(4-Pyridyl)-L-alanine; SITE 13: note = alpha-methyl-leucine; SITE 17: note = Lysine is chemically modified through conjugation of the epsilon-amino group of the Lysine) [Example 442]	0.0237	1.81	5.66	342	0.267	23.9
YXQGTXTSDXSIXLDKKAQXAFIEYLEEGGPSSGAPEPS (synthetic construct; SITE 2: note = 2-Aminoisobutyric Acid; SITE 6: note = alpha-methyl-2-fluoro-L-phenylalanine; SITE 10: note = 3-(4-Pyridyl)-L-alanine; SITE 13: note = alpha-methyl-leucine; SITE 17: note = Lysine is chemically modified through conjugation of the epsilon-amino group of the Lysine) [Example 443]	0.0291	1.57	6.09	265	0.572	34.3
YXQGTXTSDXSIXLDXKAQXAFIEYLEEGGPSSGAPPPS (synthetic construct; SITE 2: note = 2-Aminoisobutyric Acid; SITE 6: note = alpha-methyl-2-fluoro-L-phenylalanine; SITE 10: note = 3-(4-Pyridyl)-L-alanine; SITE 13: note = alpha-methyl-leucine; SITE 16: note = L-ornithine; SITE 17: note = Lysine is chemically modified through conjugation of the epsil) [Example 441]	0.0239	1.96	8	855	0.365	24.7
YXQGTXTSDYSIXLDKKAQXAFIEYLEEGGPSSGAPPPSE (synthetic construct; SITE 2: note = 2-Aminoisobutyric Acid; SITE 6: note = alpha-methyl-2-fluoro-L-phenylalanine; SITE 13: note = alpha-methyl-leucine; SITE 17: note = Lysine is chemically modified through conjugation of the epsilon-amino group of the Lysine side chain with (2-[2-(2-Amino-ethoxy)-et)) [Example 424]	0.0154	3.21	3.12	443	0.318	29.5
